Laboratory results taken from US20060210536A1 (published 2006).

Biological target: STAT3 (Homo sapiens (Human), UniProt P40763 1-770)
Test: FLAG affinity purification from transfected cell lysate, immunoblot with STAT3 antiserum

STAT3, sequence (P40763 whole entry): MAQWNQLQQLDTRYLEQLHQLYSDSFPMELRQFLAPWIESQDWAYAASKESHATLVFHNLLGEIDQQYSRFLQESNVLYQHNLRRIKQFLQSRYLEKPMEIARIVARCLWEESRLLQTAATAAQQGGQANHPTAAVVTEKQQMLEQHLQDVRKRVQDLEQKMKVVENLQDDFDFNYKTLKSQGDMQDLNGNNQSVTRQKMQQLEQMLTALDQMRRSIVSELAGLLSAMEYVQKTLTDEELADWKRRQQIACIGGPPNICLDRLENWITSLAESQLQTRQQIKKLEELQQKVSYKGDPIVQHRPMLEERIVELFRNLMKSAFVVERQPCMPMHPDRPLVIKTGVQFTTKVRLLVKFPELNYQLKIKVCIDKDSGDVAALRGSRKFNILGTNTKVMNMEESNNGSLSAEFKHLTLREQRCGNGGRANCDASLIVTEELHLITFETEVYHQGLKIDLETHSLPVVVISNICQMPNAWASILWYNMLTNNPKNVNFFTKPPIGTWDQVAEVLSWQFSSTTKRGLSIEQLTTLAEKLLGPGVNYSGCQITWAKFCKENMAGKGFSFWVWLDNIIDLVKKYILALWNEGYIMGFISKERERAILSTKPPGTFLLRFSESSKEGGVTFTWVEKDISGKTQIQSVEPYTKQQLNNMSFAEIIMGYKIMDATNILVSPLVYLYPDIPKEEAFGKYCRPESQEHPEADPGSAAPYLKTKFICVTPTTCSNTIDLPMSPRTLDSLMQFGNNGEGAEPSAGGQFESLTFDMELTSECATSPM

B1: FLAG-tagged SV5 V protein (other)
chain: MDPTDLSFSPDEINKLIETGLNTVEYFTSQQVTGTSSLGKNTIPPGVTGLLTNAAEAKIQESTNHQKGSVGGGAKPKKPRPKIAIVPADDKTVPGKPIPNPLLGLDSTPSTQTVLDLSGKTLPSGSYKGVKLAKFGKENLMTRFIEEPRENPIATSSPIDFKRGRDTGGFHRREYSIGWVGDEVKVTEWCNPSCSPITAAARRFECTCHQCPVTCSECERDT
notes: also called FLAG-SV5 V
B1: no binding.
